The test system of experiment [1] is antibodies reactive with type II collagen. The experiment in a line: Serum antibodies to CII by ELISA in co-immunized mice. The format is in vivo, DBA/1 mice. The settings on record: for Antibodies to CII: serum four weeks after immunization, mean. On the procedure: Mice were bled at four weeks after immunization and the serum was tested for antibodies reactive with type II collagen by enzyme-linked immunoassay (ELISA) described in Stuart, J. M., A. S. Townes, and A. H. Kang. 1982. Nature and Specificity of the Immune Response to Collagen in Type II Collagen-Induced Arthritis in Mice, J. Clin. Invest. 69:673. The disclosure of this article is incorporated by reference An anti-CII serum standard was used in each assay. A standard curve was derived by computer analysis using a 4 parameter logistic curve. Results are reported as units of activity, derived by comparison of test sera with the curve derived from the anti-CII standard which was arbitrarily defined as having 50 units of activity. Sera from mice were tested individually, and means were calculated for each experimental group.
In order to assess the effects of co-immunizing mice with both CII 245-270[s260, 261, 263] and CII, the mean antibody titers to native CII were measured for each immunization group in Table III, four weeks after immunization (Table IV).
(An ELISA detects its analyte on a solid surface through an enzyme-linked reagent.)

Experiment [2] deals with T1, I-A^q on the surface of antigen presenting cells (Mus musculus, UniProt P04227+P06342).
T1 construct: containing 4×10^5 syngenic spleen cells and 10^5 T-hybridoma cells; from tissue; host or cells: spleen cells syngeneic to DBA/1 mice (H-2q), used as antigen presenting cells
Description: Competitive antigen presentation assay: pulsed APC presented to CII 245-270 specific T-cell hybridomas, IL-2 titer. The experiment is classed as cell-based, DBA/1 mice. As to the method:
Lymph node cells were obtained from DBA/1 mice immunized with α1(II)-CB11 emulsified with complete Freund's adjuvant and cultured in vitro with α1(II)-CB11 for five days, and in the presence of IL-2 for three days before fusion. Hybridoma cells reactive to CB11 [CII 245-270] and CII were cloned by limiting dilution to 0.3 cells/well. Antigen presentation experiments were performed in 96 well […] plates in a total volume of 0.3 ml containing 4×10^5 syngenic spleen cells and 10^5 T-hybridoma cells. For competitive inhibition assays, spleen cells were pulsed with various ratios of inhibitor to indicator peptide and washed several times prior to addition to the antigen presentation culture. Cell cultures were maintained at 37° C. in 5% humidified CO2 for 20 to 24 hours, after which seven 80 μl two-fold serial dilutions were made for determination of IL-2 titers. Four thousand HT-2 cells were added to each supernatant dilution, and after 16 to 20 hours HT-2 cell viability was evaluated by visual inspection. IL-2 titers were determined by the reciprocal of the highest two-fold serial dilution maintaining 90% viability of the HT-2 cells. Results are presented as units of IL-2 per ml of undiluted supernatant as described by Kapper et al. Kappler, J., J. White, D. Wegman, E. Mustain, and P. Marrack, 1982, Antigen Presentation by Ia^+B Cell Hybridomas to H-2 Restricted T Cell Hybridomas. Proc. Natl. Acad. Sci. USA 79:3604. The disclosure of this article is incorporated by reference.
The inability of some analog peptides to stimulate T cells likely occurs either because of disruption of peptide binding to the I-A^q molecule or the inability of the T cell receptor to recognize the peptide. In order to determine whether the analog peptides could bind to the class II molecule, competitive antigen presentation assays were performed. Antigen presenting cells (APC) were pulsed with various molar ratios of CII 245-270 and an analog peptide, and tested for their ability to stimulate CII 245-270 specific T cell hybridomas.

The test system of experiment [3] is collagen induced arthritis in neonatally tolerized mice. Description: Neonatal tolerance: peptide given at birth, CII challenge at eight weeks, arthritis observed. The experiment is classed as in vivo. To be noted: administered to neonatal mice prior to immunization with CII; 261, 263]. The source says: To measure the incidence of arthritis in immunized mice, individuals examined and scored each of the forepaws and hind paws on a scale of 0-4 as described in Wooley, P. H., H. W. Luthra, J. M. Stuart and C. S. David. 1981. “Type 11 Collagen-induced Arthritis in Mice”. I. Major Histocompatibility Complex (I region) Linkage and Antibody Correlates. J. Exp. Med. 154:688. This article is incorporated herein by reference. There were two separate examiners, one of whom was unaware of the identity of the treatment groups. Each mouse was scored three times a week beginning three weeks post immunization and continuing through 8 weeks post immunization. The incidence of arthritis (number of animals with one or more arthritic limbs) was reported at 6 weeks post immunization, the time point at which the control group reached its peak of disease. The incidence of arthritis in various groups of mice was compared using Fisher's Exact Test. Student's T test was used to compare means of antibody responses to CII.
The foregoing data support the hypothesis that analog peptide CII 245-270[s260, 261, 263] competes for binding to I-A^q. […] Synthetic peptides were solubilized directly in phosphate buffered saline (PBS) at a concentration of 1 mg/ml. […]

Data on one substance can be found in patent US20020037844A1, “SYNTHETIC PEPTIDE FOR TREATMENT OF AUTOIMMUNE ARTHRITIS” (priority 1993, published 2002).

“Also recorded” adds a separate entry of the source.

Take “Pro - Thr - Gly - Pro - Leu - Gly - Pro - Lys - Gly - Gln - Thr - Gly - Glx - Leu - Gly - Ala - 4Hyp - Gly - Asn - Lys - Gly - Glx - Gln - Gly - Pro - Lys [CII 245-270 [s260, 261, 263], analog of CII 245-270 with alanine at 260, hydroxyproline at 261, asparagine at 263]”: in experiment [1] (co-immunization with CII), the “Immune responses to CII in vivo as well as in vitro, in words” value is listed as “significantly down regulated”. Moreover, the “Antibodies to CII” value in experiment [1] (molar ratio CII:peptide 1:160) was 53 ± 25 units of activity; in experiment [1] (molar ratio CII:peptide 1:320), 34 ± 22 units of activity; in experiment [1] (molar ratio CII:peptide 1:480), 17 ± 3 units of activity. In addition, the IL-2 is 160 U/ml in experiment [2] (T-cell hybrid 2qCII92.33, molar ratio competitor:CII 245-270 1.6:1); 80 U/ml in experiment [2] (T-cell hybrid 2qCII92.33, molar ratio competitor:CII 245-270 3.2:1); 20 U/ml in experiment [2] (T-cell hybrid 2qCII92.33, molar ratio competitor:CII 245-270 6.5:1); “— (A “—” indicates less than 20 U/ml of IL-2 detected)” in experiment [2] (T-cell hybrid 2qCII92.33, molar ratio competitor:CII 245-270 13:1); 640 U/ml in experiment [2] (T-cell hybrid qCII85.33, molar ratio competitor:CII 245-270 1.6:1); 320 U/ml in experiment [2] (T-cell hybrid qCII85.33, molar ratio competitor:CII 245-270 3.2:1). In addition, the IL-2 in experiment [2] (T-cell hybrid qCII85.33, molar ratio competitor:CII 245-270 6.5:1) is listed as 40 U/ml; in experiment [2] (T-cell hybrid qCII85.33, molar ratio competitor:CII 245-270 13:1), “—* (A “—” indicates less than 20 U/ml of IL-2 detected)”; in experiment [2] (T-cell hybrid qCII98.10, molar ratio competitor:CII 245-270 1.6:1), 160 U/ml; in experiment [2] (T-cell hybrid qCII98.10, molar ratio competitor:CII 245-270 3.2:1), 80 U/ml; in experiment [2] (T-cell hybrid qCII98.10, molar ratio competitor:CII 245-270 6.5:1) it was 40 U/ml; in experiment [2] (T-cell hybrid qCII98.10, molar ratio competitor:CII 245-270 13:1), “— (A “—” indicates less than 20 U/ml of IL-2 detected)”. The “Ability of competitively pulsed APC to stimulate the T-cell hybridomas” value in experiment [2] (analog:CII 245-270 molar ratios of 6:1 or greater) was “greatly reduced”. Further, the “Binding to I-A^q / competition for presentation of the wild type peptide to T-cell hybridomas” value in experiment [2] (conclusion from Table II) is “capable of binding to I-A^q”. In experiment [3], the “Effectiveness as neonatal tolerogen, in words” value is “ineffective as a CII tolergen; also recorded: very poor tolerogen”.
